Measurements reported in patent publication EP4772193A1 (Teijin Pharma Limited, dated 2026).
Where two headings read alike, the source gives them in different places.

B1: hGPN06-1_H0L0 (antibody, V domains shown)
VH: QVQLQQPGAEIVRPGASVKLSCKASGYTFTDNWMGWVKQRPGQGLEWIGAIDPSDSFTNYNQNFKGKATLTVDTSSSTAYMQLSSLTSEDSAVYFCTRSGYYGSPKLGGDYWGQGTTLTVSS
VL: QIVLTQSPAIMSASLGEEITLTCSASSSISYMHWYQQKSGTSPKLLIYSTSNLASGVPSRFSGSGSGTFYSLTISSVEAEDAADYYCHQWNSYPCTFGGGTKLEIK
notes: human chimeric antibody: mouse GPN06-1 variable regions (VH0, VL0); also called human chimeric antibody of GPN06-1
B2: hGPN06-1_H1L1 (antibody, V domains shown)
VH: QVQLVQSGAEVKKPGASVKVSCKASGYTFTDNWMGWVKQRPGQGLEWIGAIDPSDSFTNYNQNFKGRVTMTVDTSISTAYMELSRLRSDDSAVYFCTRSGYYGSPKLGGDYWGQGTLVTVSS
VL: EIVLTQSPSSLSASVGDRVTITCSASSSISYMHWYQQKSGTAPKLLIYSTSNLASGVPSRFSGSGSGTDFTFTISSLQPEDAATYYCHQWNSYPCTFGGGTKLEIK
notes: humanized; also called humanized anti-gpNMB antibody H1L1
B3: hGPN18-2_H2L3 (antibody, V domains shown)
VH: QVQLVQSGPGLVQPTQTLTLTCSFSGFSLSTSVMGVGWIRQPSGKGLEWLADIWWDDDKDYNPSLKSRLTISKDTSKNQVVLTMTNMDTVDTATYYCARTYYSNYEYYGMDYWGQGTLVTVSS
VL: DIVMTQSPDSLAVSLGERATINCRSSQTIILSNGNTYLEWYQQKPGQPPKLLIYKVSNRFSGVPDRFSGSGSGTDFTLTISSLQAEDVAVYYCFQGSHVPFTFGSGTKLEIKR
notes: humanized; also called humanized anti-gpNMB antibody H2L3

Experiments:
[1] = biological target: T1, recombinant human soluble gpNMB (recombinant human gpNMB-FLAG-His) (human, UniProt Q14956 23-498); experiment: antigen ELISA
T1 sequence: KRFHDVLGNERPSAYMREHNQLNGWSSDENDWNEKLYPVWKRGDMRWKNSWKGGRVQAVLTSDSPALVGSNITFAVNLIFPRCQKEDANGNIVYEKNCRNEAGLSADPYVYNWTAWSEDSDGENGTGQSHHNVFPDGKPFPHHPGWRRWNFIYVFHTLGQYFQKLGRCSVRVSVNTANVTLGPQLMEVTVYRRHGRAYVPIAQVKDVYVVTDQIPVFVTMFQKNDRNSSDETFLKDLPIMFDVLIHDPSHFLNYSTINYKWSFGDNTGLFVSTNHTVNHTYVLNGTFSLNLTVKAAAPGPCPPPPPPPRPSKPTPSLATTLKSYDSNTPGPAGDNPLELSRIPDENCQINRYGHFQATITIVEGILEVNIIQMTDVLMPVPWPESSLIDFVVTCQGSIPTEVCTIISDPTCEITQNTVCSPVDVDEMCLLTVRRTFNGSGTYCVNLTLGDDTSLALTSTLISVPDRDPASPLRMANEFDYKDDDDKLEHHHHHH

[2] = biological target: T1, recombinant human soluble gpNMB …; experiment: SPR, antibody over captured gpNMB-FLAG-His, 1:1 model
[3] = biological target: T1, recombinant human soluble gpNMB …; experiment: antigen ELISA; remark: listed apart in the source
[4] = biological target: T1, recombinant human soluble gpNMB …; experiment: antigen ELISA; remark: listed apart in the source
[5] = biological target: T1, recombinant human soluble gpNMB …; experiment: antigen ELISA; remark: listed apart in the source
[6] = biological target: T1, recombinant human soluble gpNMB …; experiment: antigen ELISA, vs hGPN06-1_H1L1
[7] = biological target: T1, recombinant human soluble gpNMB …; experiment: antigen ELISA, vs hGPN06-1_H1L1; remark: listed apart in the source
[8] = biological target: T1, recombinant human soluble gpNMB …; experiment: antigen ELISA, vs hGPN06-1_H1L1; remark: listed apart in the source
[9] = biological target: T1, recombinant human soluble gpNMB …; experiment: antigen ELISA; remark: listed apart in the source
[10] = biological target: T1, recombinant human soluble gpNMB …; experiment: antigen ELISA; remark: listed apart in the source
[11] = biological target: T1, recombinant human soluble gpNMB …; experiment: antigen ELISA; remark: listed apart in the source
[12] = biological target: T1, recombinant human soluble gpNMB …; experiment: antigen ELISA; remark: listed apart in the source
[13] = biological target: T1, recombinant human soluble gpNMB …; experiment: antigen ELISA, vs hGPN18-2_H2L3
[14] = biological target: T1, recombinant human soluble gpNMB …; experiment: antigen ELISA, vs hGPN18-2_H2L3; remark: listed apart in the source
[15] = biological target: T1, recombinant human soluble gpNMB …; experiment: antigen ELISA, vs hGPN18-2_H2L3; remark: listed apart in the source
[16] = biological target: T1, recombinant human soluble gpNMB …; experiment: SPR, antibody 100 nM over captured gpNMB-FLAG-His, 36C

EC50 [1] | Kd [2] | koff [2] | kon [2] | EC50 [3] | EC50 [4] | EC50 [5] | Relative binding activity [6] | Relative binding activity [7] | Relative binding activity [8] | EC50 [9] | EC50 [10] | EC50 [11] | EC50 [12] | Relative binding activity [13] | Relative binding activity [14] | Relative binding activity [15] | Kd [16] | koff [16] | kon [16] | Binder
0.383 nM | 0.265 nM | 0.000209 s⁻¹ | 789000 M⁻¹ s⁻¹ |  |  |  |  |  |  |  |  |  |  |  |  |  |  |  |  | B1
0.575 nM | 0.62 nM | 0.000567 s⁻¹ | 916000 M⁻¹ s⁻¹ | 1.98 nM | 1.98 nM | 1.98 nM | 1 | 1 | 1 |  |  |  |  |  |  |  |  |  |  | B2
 |  |  |  |  |  |  |  |  |  | 1.84 nM | 4.39 nM | 4.39 nM | 4.39 nM | 1 | 1 | 1 | 0.00778 nM | 7.49e-07 s⁻¹ | 96200 M⁻¹ s⁻¹ | B3
